According to article PMC5241209, “Identification and functional analysis of c.422_423InsT, a novel mutation of the HNF1A gene in a patient with diabetes”:

Molecular target: HNF1A (rHNF1A) (UniProt P20823 1-631)
Assay: EMSA; two complexes, complex 1 more abundant; abolished by 300x unlabeled probe; 12 mM Hepes pH 7.9, 60 mM KCl, 10% glycerol, 1 mM EDTA, 1 mM MgCl2, 1 mM DTT plus DNA mix (1 mM spermidine, 1 mM MgCl2), 1 ug poly(dG/dC)·poly(dG-dC), 4 C; probe 1.29 nM (0.52 nM in mutant titration); 6% PAGE, 0.5x TBE
Conditions: protein: ivt; chain copies: 2; label: 32P 5' end (T4 PNK)

Sequence of HNF1A (rHNF1A) (P20823 whole entry): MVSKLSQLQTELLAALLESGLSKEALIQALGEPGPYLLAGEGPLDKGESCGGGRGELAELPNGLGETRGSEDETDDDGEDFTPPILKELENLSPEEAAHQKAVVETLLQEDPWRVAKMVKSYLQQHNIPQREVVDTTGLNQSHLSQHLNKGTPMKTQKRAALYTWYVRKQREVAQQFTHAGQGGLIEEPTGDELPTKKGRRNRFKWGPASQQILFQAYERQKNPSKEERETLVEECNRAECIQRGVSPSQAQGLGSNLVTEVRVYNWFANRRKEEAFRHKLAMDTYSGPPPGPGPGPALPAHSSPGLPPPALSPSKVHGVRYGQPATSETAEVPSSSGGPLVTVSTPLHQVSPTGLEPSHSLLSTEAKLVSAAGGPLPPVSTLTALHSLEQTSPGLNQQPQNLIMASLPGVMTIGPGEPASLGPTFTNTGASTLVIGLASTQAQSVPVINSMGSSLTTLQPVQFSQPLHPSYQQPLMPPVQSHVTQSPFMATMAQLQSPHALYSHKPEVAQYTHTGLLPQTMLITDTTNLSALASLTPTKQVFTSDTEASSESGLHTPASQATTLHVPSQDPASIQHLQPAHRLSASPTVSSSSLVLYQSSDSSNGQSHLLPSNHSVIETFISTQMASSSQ

B1: GLUT2 promoter HNF1A site (dsDNA)
DNA 1: CTCAGTAAAGATTAACCAT
DNA 2: ATGGTTAATCTTTACTGAG
- binding result: binds
